The target of the test is CD33 (UniProt P20138 18-364, limits assumed). As to the kind of experiment: cell-based or functional assay.
Sequence of CD33 (P20138 18-364 limits assumed): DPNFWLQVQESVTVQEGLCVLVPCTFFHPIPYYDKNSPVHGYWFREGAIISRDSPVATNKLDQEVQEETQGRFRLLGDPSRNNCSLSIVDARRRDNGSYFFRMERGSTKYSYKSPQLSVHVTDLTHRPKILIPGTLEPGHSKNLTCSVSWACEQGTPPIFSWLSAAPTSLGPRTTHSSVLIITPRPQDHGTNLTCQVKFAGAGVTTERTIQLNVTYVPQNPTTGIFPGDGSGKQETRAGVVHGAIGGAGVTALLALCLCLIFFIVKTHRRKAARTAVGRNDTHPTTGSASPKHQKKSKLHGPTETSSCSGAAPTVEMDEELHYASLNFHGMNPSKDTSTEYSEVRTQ

B1: CD33-CAR4 (other)
chain: EVQLVQSGAEVKKPGSSVKVSCKASGYTITDSNIHWVRQAPGQSLEWIGYIYPYNGGTDYNQKFKNRATLTVDNPTNTAYMELSSLRSEDTAFYYCVNGNPWLAYWGQGTLVTVSSGGGGSGGGGSGGGGSDIQLTQSPSTLSASVGDRVTITCRASESLDNYGIRFLTWFQQKPGKAPKLLMYAASNQGSGVPSRFSGSGSGTEFTLTISSLQPDDFATYYCQQTKEVPWSFGQGTKVEVKRTSSGAAAIEVMYPPPYLDNEKSNGTIIHVKGKHLCPSPLFPGPSKPFWVLVVVGGVLACYSLLVTVAFIIFWVRSKRSRLLHSDYMNMTPRRPGPTRKHYQPYAPPRDFAAYRSRVKFSRSADAPAYQQGQNQLYNELNLGRREEYDVLDKRRGRDPEMGGKPRRKNPQEGLYNELQKDKMAEAYSEIGMKGERRRGKGHDGLYQGLSTATKDTYDALHMQALPPRGS
In the case of B1, the “Ratio (NFAT-inducible reporter with wild-type MOLM-13 relative to MOLM-13 CD33KO)” value amounted to 2.41 ratio and the “Testing FP2 Expression (CD33+)” value was 4.14 % of constitutive-fluorescence-positive cells.

B2: CD33-CAR3 (other)
chain: QVQLVQSGAEVKKPGSSVKVSCKASGYTFTDYNMHWVRQAPGQGLEWIGYIYPYNGGTGYNQKFKSKATITADESTNTAYMELSSLRSEDTAVYYCARGRPAMDYWGQGTLVTVSSGGGGSGGGGSGGGGSDIQMTQSPSSLSASVGDRVTITCRASESVDNYGISFMNWFQQKPGKAPKLLIYAASNQGSGVPSRFSGSGSGTDFTLTISSLQPDDFATYYCQQSKEVPWTFGQGTKVEIKSGAAAIEVMYPPPYLDNEKSNGTIIHVKGKHLCPSPLFPGPSKPFWVLVVVGGVLACYSLLVTVAFIIFWVRSKRSRLLHSDYMNMTPRRPGPTRKHYQPYAPPRDFAAYRSRVKFSRSADAPAYQQGQNQLYNELNLGRREEYDVLDKRRGRDPEMGGKPRRKNPQEGLYNELQKDKMAEAYSEIGMKGERRRGKGHDGLYQGLSTATKDTYDALHMQALPPRGS
Turning to B2, the “Ratio (NFAT-inducible reporter with wild-type MOLM-13 relative to MOLM-13 CD33KO)” value stood at 1.44 ratio and the “Testing FP2 Expression (CD33+)” value is 3.9 % of constitutive-fluorescence-positive cells.

B3: CD33-CAR7 (other)
chain: MELGLSWVVLAALLQGVQAQVQLVQPGGSLRLFCVASEEFFSIYAMGWYRQAPGKQHEMVARFTRDGKITYADSAKGRFTITRDAKNTLNLQMNGLIPEDTAVYYCNINHYWGQGTQVTVSSAAATTTPAPRPPTPAPTIASQPLSLRPEACRPAAGGAVHTRGLDFACDIYIWAPLAGTCGVLLLSLVITLYCKRGRKKLLYIFKQPFMRPVQTTQEEDGCSCRFPEEEEGGCELRVKFSRSADAPAYQQGQNQLYNELNLGRREEYDVLDKRRGRDPEMGGKPRRKNPQEGLYNELQKDKMAEAYSEIGMKGERRRGKGHDGLYQGLSTATKDTYDALHMQALPPR
For the molecule B3, the “Ratio (NFAT-inducible reporter with wild-type MOLM-13 relative to MOLM-13 CD33KO)” value came out at 1.98 ratio and the “Testing FP2 Expression (CD33+)” value is 17.6 % of constitutive-fluorescence-positive cells.

B4: CD33-CAR5 (other)
chain: QVKLEESGGGSVQAGESLRLSCTASGITFRDYDIDWYRQAPGKEREWLATITPSGTTHYPDSVKGRATISRDSAKNTVYLQMNSLKPEDTARYECNTLAYWGSGTQVTVSSAAATTTPAPRPPTPAPTIASQPLSLRPEACRPAAGGAVHTRGLDFACDIYIWAPLAGTCGVLLLSLVITLYCKRGRKKLLYIFKQPFMRPVQTTQEEDGCSCRFPEEEEGGCELRVKFSRSADAPAYQQGQNQLYNELNLGRREEYDVLDKRRGRDPEMGGKPRRKNPQEGLYNELQKDKMAEAYSEIGMKGERRRGKGHDGLYQGLSTATKDTYDALHMQALPPR
Regarding B4, the “Ratio (NFAT-inducible reporter with wild-type MOLM-13 relative to MOLM-13 CD33KO)” value worked out at 8.5 ratio and the “Testing FP2 Expression (CD33+)” value is 28.2 % of constitutive-fluorescence-positive cells.

B5: CD33-CAR6 (other)
chain: QVQLVETGGGLVRAGGSLRLSCAASGRTADIYNIGWFRQAPGKEREFVAAITWIGRTPYYADAVKGRFAFSTDSAKNTVSLQMDNLKPEDTGVYYCNAAHYLEGNTDYYWGQGTQVTVSSAAATTTPAPRPPTPAPTIASQPLSLRPEACRPAAGGAVHTRGLDFACDIYIWAPLAGTCGVLLLSLVITLYCKRGRKKLLYIFKQPFMRPVQTTQEEDGCSCRFPEEEEGGCELRVKFSRSADAPAYQQGQNQLYNELNLGRREEYDVLDKRRGRDPEMGGKPRRKNPQEGLYNELQKDKMAEAYSEIGMKGERRRGKGHDGLYQGLSTATKDTYDALHMQALPPR
In the case of B5, the “Ratio (NFAT-inducible reporter with wild-type MOLM-13 relative to MOLM-13 CD33KO)” value is 3.6 ratio and the “Testing FP2 Expression (CD33+)” value was 22.9 % of constitutive-fluorescence-positive cells.

Source of the values: patent US20230372484A1 (VOR BIOPHARMA, published 2023).
